B1: S. cerevisiae Abp1 (full length; SH3 domain 535-592 mutated) / Hua2 (parent complex)
chain 1: MALEPIDYTTHSREIDAEYLKIVRGSDPDTTWLIISPNAKKEYEPESTGSSFHDFLQLFDETKVQYGLARVSPPGSDVEKIIIIGWCPDSAPLKTRASFAANFAAVANNLFKGYHVQVTARDEDDLDENELLMKISNAAGARYSIQTSSKQQGKASTPPVKKSFTPSKSPAPVSKKEPVKTPSPAPAAKISSRVNDNNDDDDWNEPELKERDFDQAPLKPNQSSYKPIGKIDLQKVIAEEKAKEDPRLVQKPTAAGSKIDPSSDIANLKNESKLKRDSEFNSFLGTTKPPSMTESSLKNDDDKVIKGFRNEKSPAQLWAERKAKQNSGNAETKAEAPKPEVPEDEPEGEPDVKDLKSKFEGLAASEKEEEEMENKFAPPPKKSEPTIISPKPFSKPQEPVKAEEAEQPKTDYKKIGNPLPGMHIEADNEEEPEENDDDWDDDEDEAAQPPLPSRNVASGAPVQKEEPEQEEIAPSLPSRNSIPAPKQEEAPEQAPEEEIEEEAEEAAPQLPSRSSAAPPPPPRRATPEKKPKENPWATAEYDYDAAEDNELTFVENDKIINIEFVDDDWWLGELEKDGSKGLFPSNYVSLGN
chain 2: MQQTKFGKMYLDHDSVVEYSEDEIVEADRITLGYKKRLSMIENQMRHLLEDFSLDVQQIEPILADLQKYYDAFLQLLQKRNKSLQCKRSTHQPVPSPMNSQTSTNAKVNLSGKLMKFQLNSVQKFDEENILRILQNKIEFEHYFQIDKGKKQKVLLLAVYQCLNGPTRLHKVLNIEGIIHNNSIRTILGKQVSSSKWTVFLYDVKLVLLAHRQDVPNLETSKMIVRYGDLFPCALYFKDHTAY

Variants of: B1
Assay: DHFR protein-fragment complementation in yeast (Abp1-DHFR F[1,2] x partner-DHFR F[3]), deep mutational scanning, second methotrexate selection vs reference; S. cerevisiae, DHFR-PCA selection in liquid with methotrexate at 30 C, two 72 h selections (the score uses the second); reference = the pre-selection culture
In the case of chain 1 F564E, the screen value is reported as 0.712 DMS score: mean over two replicates of log2(f_test/f_ref + 0.5)/ln 2, minus the synonymous-codon median (not a log2 …. With chain 1 G591V the screen value was -0.0626 DMS score: mean over two replicates of log2(f_test/f_ref + 0.5)/ln 2, minus the synonymous-codon median (not a log2 …. With chain 1 N592E the screen value was 1.16 DMS score: mean over two replicates of log2(f_test/f_ref + 0.5)/ln 2, minus the synonymous-codon median (not a log2 …. For chain 1 V554D, the screen value was 0.269 DMS score: mean over two replicates of log2(f_test/f_ref + 0.5)/ln 2, minus the synonymous-codon median (not a log2 …. For chain 1 D567A, the screen value was -2.23 DMS score: mean over two replicates of log2(f_test/f_ref + 0.5)/ln 2, minus the synonymous-codon median (not a log2 …. With chain 1 D548T the screen value was 0.434 DMS score: mean over two replicates of log2(f_test/f_ref + 0.5)/ln 2, minus the synonymous-codon median (not a log2 …. With chain 1 K580F the screen value was 0.0243 DMS score: mean over two replicates of log2(f_test/f_ref + 0.5)/ln 2, minus the synonymous-codon median (not a log2 …. With chain 1 K580N the screen value was -0.698 DMS score: mean over two replicates of log2(f_test/f_ref + 0.5)/ln 2, minus the synonymous-codon median (not a log2 …. With chain 1 S589R the screen value was 1.04 DMS score: mean over two replicates of log2(f_test/f_ref + 0.5)/ln 2, minus the synonymous-codon median (not a log2 …. For chain 1 G591Y, the screen value was -0.189 DMS score: mean over two replicates of log2(f_test/f_ref + 0.5)/ln 2, minus the synonymous-codon median (not a log2 …. For chain 1 N549E, the screen value was 1.95 DMS score: mean over two replicates of log2(f_test/f_ref + 0.5)/ln 2, minus the synonymous-codon median (not a log2 …. With chain 1 L590F the screen value was -0.882 DMS score: mean over two replicates of log2(f_test/f_ref + 0.5)/ln 2, minus the synonymous-codon median (not a log2 …. In the case of chain 1 D544P, the screen value is reported as -0.888 DMS score: mean over two replicates of log2(f_test/f_ref + 0.5)/ln 2, minus the synonymous-codon median (not a log2 …. With chain 1 E573V the screen value was 0.415 DMS score: mean over two replicates of log2(f_test/f_ref + 0.5)/ln 2, minus the synonymous-codon median (not a log2 …. chain 1 Y541L was tested, and the screen value was -2.57 DMS score: mean over two replicates of log2(f_test/f_ref + 0.5)/ln 2, minus the synonymous-codon median (not a log2 …. With chain 1 F564P the screen value was -2.61 DMS score: mean over two replicates of log2(f_test/f_ref + 0.5)/ln 2, minus the synonymous-codon median (not a log2 …. For chain 1 I562L, the screen value was -0.495 DMS score: mean over two replicates of log2(f_test/f_ref + 0.5)/ln 2, minus the synonymous-codon median (not a log2 …. chain 1 K580S was tested, and the screen value was -0.00598 DMS score: mean over two replicates of log2(f_test/f_ref + 0.5)/ln 2, minus the synonymous-codon median (not a log2 …. chain 1 V554N was tested, and the screen value was 0.128 DMS score: mean over two replicates of log2(f_test/f_ref + 0.5)/ln 2, minus the synonymous-codon median (not a log2 …. In the case of chain 1 T538N, the screen value is reported as -0.471 DMS score: mean over two replicates of log2(f_test/f_ref + 0.5)/ln 2, minus the synonymous-codon median (not a log2 …. chain 1 V554M was tested, and the screen value was -0.0016 DMS score: mean over two replicates of log2(f_test/f_ref + 0.5)/ln 2, minus the synonymous-codon median (not a log2 …. For chain 1 D548N, the screen value was 0.0071 DMS score: mean over two replicates of log2(f_test/f_ref + 0.5)/ln 2, minus the synonymous-codon median (not a log2 …. chain 1 D544Y was tested, and the screen value was -0.602 DMS score: mean over two replicates of log2(f_test/f_ref + 0.5)/ln 2, minus the synonymous-codon median (not a log2 …. With chain 1 K558Q the screen value was -0.388 DMS score: mean over two replicates of log2(f_test/f_ref + 0.5)/ln 2, minus the synonymous-codon median (not a log2 …. In the case of chain 1 G591I, the screen value is reported as 0.474 DMS score: mean over two replicates of log2(f_test/f_ref + 0.5)/ln 2, minus the synonymous-codon median (not a log2 …. In the case of chain 1 Y587H, the screen value is reported as -0.477 DMS score: mean over two replicates of log2(f_test/f_ref + 0.5)/ln 2, minus the synonymous-codon median (not a log2 …. For chain 1 Y541D, the screen value was -1.13 DMS score: mean over two replicates of log2(f_test/f_ref + 0.5)/ln 2, minus the synonymous-codon median (not a log2 …. With chain 1 A546V the screen value was -0.179 DMS score: mean over two replicates of log2(f_test/f_ref + 0.5)/ln 2, minus the synonymous-codon median (not a log2 …. With chain 1 E563R the screen value was -1.39 DMS score: mean over two replicates of log2(f_test/f_ref + 0.5)/ln 2, minus the synonymous-codon median (not a log2 …. With chain 1 D544N the screen value was -0.362 DMS score: mean over two replicates of log2(f_test/f_ref + 0.5)/ln 2, minus the synonymous-codon median (not a log2 …. With chain 1 W536V the screen value was -0.259 DMS score: mean over two replicates of log2(f_test/f_ref + 0.5)/ln 2, minus the synonymous-codon median (not a log2 …. With chain 1 A546G the screen value was 0.413 DMS score: mean over two replicates of log2(f_test/f_ref + 0.5)/ln 2, minus the synonymous-codon median (not a log2 …. With chain 1 N549C the screen value was 2.18 DMS score: mean over two replicates of log2(f_test/f_ref + 0.5)/ln 2, minus the synonymous-codon median (not a log2 …. For chain 1 V565Q, the screen value was -0.327 DMS score: mean over two replicates of log2(f_test/f_ref + 0.5)/ln 2, minus the synonymous-codon median (not a log2 …. For chain 1 K580E, the screen value was -0.984 DMS score: mean over two replicates of log2(f_test/f_ref + 0.5)/ln 2, minus the synonymous-codon median (not a log2 …. For chain 1 S589F, the screen value was -0.753 DMS score: mean over two replicates of log2(f_test/f_ref + 0.5)/ln 2, minus the synonymous-codon median (not a log2 …. chain 1 D544F was tested, and the screen value was 0.632 DMS score: mean over two replicates of log2(f_test/f_ref + 0.5)/ln 2, minus the synonymous-codon median (not a log2 …. In the case of chain 1 D568S, the screen value is reported as -2.97 DMS score: mean over two replicates of log2(f_test/f_ref + 0.5)/ln 2, minus the synonymous-codon median (not a log2 …. In the case of chain 1 N592G, the screen value is reported as 0.394 DMS score: mean over two replicates of log2(f_test/f_ref + 0.5)/ln 2, minus the synonymous-codon median (not a log2 …. With chain 1 V565H the screen value was -1.58 DMS score: mean over two replicates of log2(f_test/f_ref + 0.5)/ln 2, minus the synonymous-codon median (not a log2 …. For chain 1 S589D, the screen value was 0.916 DMS score: mean over two replicates of log2(f_test/f_ref + 0.5)/ln 2, minus the synonymous-codon median (not a log2 …. For chain 1 K558E, the screen value was -0.942 DMS score: mean over two replicates of log2(f_test/f_ref + 0.5)/ln 2, minus the synonymous-codon median (not a log2 …. With chain 1 L571A the screen value was -0.0753 DMS score: mean over two replicates of log2(f_test/f_ref + 0.5)/ln 2, minus the synonymous-codon median (not a log2 …. In the case of chain 1 D544K, the screen value is reported as 1.68 DMS score: mean over two replicates of log2(f_test/f_ref + 0.5)/ln 2, minus the synonymous-codon median (not a log2 …. With chain 1 G591H the screen value was -0.407 DMS score: mean over two replicates of log2(f_test/f_ref + 0.5)/ln 2, minus the synonymous-codon median (not a log2 …. For chain 1 Y541C, the screen value was -1.21 DMS score: mean over two replicates of log2(f_test/f_ref + 0.5)/ln 2, minus the synonymous-codon median (not a log2 …. With chain 1 D544H the screen value was 0.503 DMS score: mean over two replicates of log2(f_test/f_ref + 0.5)/ln 2, minus the synonymous-codon median (not a log2 …. For chain 1 S589T, the screen value was 0.254 DMS score: mean over two replicates of log2(f_test/f_ref + 0.5)/ln 2, minus the synonymous-codon median (not a log2 …. In the case of chain 1 D544T, the screen value is reported as 0.786 DMS score: mean over two replicates of log2(f_test/f_ref + 0.5)/ln 2, minus the synonymous-codon median (not a log2 …. In the case of chain 1 S589G, the screen value is reported as 0.273 DMS score: mean over two replicates of log2(f_test/f_ref + 0.5)/ln 2, minus the synonymous-codon median (not a log2 …. With chain 1 E540H the screen value was -2.15 DMS score: mean over two replicates of log2(f_test/f_ref + 0.5)/ln 2, minus the synonymous-codon median (not a log2 …. chain 1 K580Q was tested, and the screen value was 0.294 DMS score: mean over two replicates of log2(f_test/f_ref + 0.5)/ln 2, minus the synonymous-codon median (not a log2 …. For chain 1 K558L, the screen value was 0.204 DMS score: mean over two replicates of log2(f_test/f_ref + 0.5)/ln 2, minus the synonymous-codon median (not a log2 …. In the case of chain 1 Y541K, the screen value is reported as -2.77 DMS score: mean over two replicates of log2(f_test/f_ref + 0.5)/ln 2, minus the synonymous-codon median (not a log2 …. With chain 1 D568H the screen value was -2.63 DMS score: mean over two replicates of log2(f_test/f_ref + 0.5)/ln 2, minus the synonymous-codon median (not a log2 …. With chain 1 N549Q the screen value was 1.15 DMS score: mean over two replicates of log2(f_test/f_ref + 0.5)/ln 2, minus the synonymous-codon median (not a log2 …. For chain 1 K558C, the screen value was -0.507 DMS score: mean over two replicates of log2(f_test/f_ref + 0.5)/ln 2, minus the synonymous-codon median (not a log2 …. For chain 1 Y541F, the screen value was 0.0303 DMS score: mean over two replicates of log2(f_test/f_ref + 0.5)/ln 2, minus the synonymous-codon median (not a log2 …. With chain 1 Y543W the screen value was 0.254 DMS score: mean over two replicates of log2(f_test/f_ref + 0.5)/ln 2, minus the synonymous-codon median (not a log2 …. chain 1 E555F was tested, and the screen value was -0.693 DMS score: mean over two replicates of log2(f_test/f_ref + 0.5)/ln 2, minus the synonymous-codon median (not a log2 …. With chain 1 P535D the screen value was 0.473 DMS score: mean over two replicates of log2(f_test/f_ref + 0.5)/ln 2, minus the synonymous-codon median (not a log2 …. With chain 1 A537G the screen value was 0.922 DMS score: mean over two replicates of log2(f_test/f_ref + 0.5)/ln 2, minus the synonymous-codon median (not a log2 …. In the case of chain 1 T538A, the screen value is reported as -0.987 DMS score: mean over two replicates of log2(f_test/f_ref + 0.5)/ln 2, minus the synonymous-codon median (not a log2 …. With chain 1 D548I the screen value was -0.724 DMS score: mean over two replicates of log2(f_test/f_ref + 0.5)/ln 2, minus the synonymous-codon median (not a log2 …. In the case of chain 1 G591S, the screen value is reported as 0.409 DMS score: mean over two replicates of log2(f_test/f_ref + 0.5)/ln 2, minus the synonymous-codon median (not a log2 …. In the case of chain 1 D557E, the screen value is reported as -0.885 DMS score: mean over two replicates of log2(f_test/f_ref + 0.5)/ln 2, minus the synonymous-codon median (not a log2 …. With chain 1 D542Q the screen value was 0.542 DMS score: mean over two replicates of log2(f_test/f_ref + 0.5)/ln 2, minus the synonymous-codon median (not a log2 …. With chain 1 V565R the screen value was -2.71 DMS score: mean over two replicates of log2(f_test/f_ref + 0.5)/ln 2, minus the synonymous-codon median (not a log2 …. chain 1 N556L was tested, and the screen value was -0.482 DMS score: mean over two replicates of log2(f_test/f_ref + 0.5)/ln 2, minus the synonymous-codon median (not a log2 …. chain 1 S589W was tested, and the screen value was 0.0382 DMS score: mean over two replicates of log2(f_test/f_ref + 0.5)/ln 2, minus the synonymous-codon median (not a log2 …. chain 1 P535V was tested, and the screen value was 1.51 DMS score: mean over two replicates of log2(f_test/f_ref + 0.5)/ln 2, minus the synonymous-codon median (not a log2 …. With chain 1 G591Q the screen value was 0.531 DMS score: mean over two replicates of log2(f_test/f_ref + 0.5)/ln 2, minus the synonymous-codon median (not a log2 …. chain 1 D566T was tested, and the screen value was -2.82 DMS score: mean over two replicates of log2(f_test/f_ref + 0.5)/ln 2, minus the synonymous-codon median (not a log2 …. chain 1 K576G was tested, and the screen value was -0.96 DMS score: mean over two replicates of log2(f_test/f_ref + 0.5)/ln 2, minus the synonymous-codon median (not a log2 …. chain 1 N592A was tested, and the screen value was 0.381 DMS score: mean over two replicates of log2(f_test/f_ref + 0.5)/ln 2, minus the synonymous-codon median (not a log2 ….

Source: PMC7954794 (2021)
